Common to all, as to test: Number and Brightness (N&B) fluorescence fluctuation microscopy
Assay [1] has as its target PUUV SP-mCh2-Gc (Puumala orthohantavirus glycoprotein Gc labelled with mCherry2) (Puumala orthohantavirus (PUUV), strain Sotkamo/V-2969/81).
Assay [2] deals with PUUV SP-mCh2-Gn (Puumala orthohantavirus glycoprotein Gn labelled with mCherry2) (Puumala orthohantavirus (PUUV), strain Sotkamo/V-2969/81).
Assay [3] deals with PUUV YFP-NP (Puumala orthohantavirus nucleoprotein labelled with yellow fluorescent protein) (Puumala orthohantavirus (PUUV), strain Sotkamo/V-2969/81) (UniProt P27313).

Where “and” joins values, the source holds several entries; their conditions need not be identical. Equal values may be shown once. Bounds are passed on as bounds.

Broadly, the stoichiometry N is the number of molecules, sites or subunits per partner or assembly. In the case of “PUUV SP-mCh2-Gc (Puumala orthohantavirus glycoprotein Gc labelled with mCherry2) (natural protein)”, the stoichiometry N in assay [1] was < 8.
Turning to “PUUV SP-mCh2-Gn (Puumala orthohantavirus glycoprotein Gn labelled with mCherry2) (natural protein)”, the stoichiometry N in assay [2] was < 4.
Take “PUUV YFP-NP (Puumala orthohantavirus nucleoprotein labelled with yellow fluorescent protein) (from UniProt P27313 1-433) (natural protein)”: the stoichiometry N in assay [3] is < 10 and 4 and 8.

For the origin of these results see paper PMC12298772.
